Source: publication PMC8345109, “Optimization of New Catalytic Topoisomerase II Inhibitors as an Anti-Cancer Therapy” (Cancers, 2021)

Tests used:
[1] = target: TOP2A(431-1193) (Homo sapiens, UniProt P11388 431-1193); assay: EMSA; merbarone; FP: 20 mM HEPES-NaOH pH 7.4, 2 mM DTT, 3 mM MgCl2, 0.05% NP-40, protease inhibitors, room temperature 20 min; EMSA buffer not in material; details: protein: recombinant; tags: N-terminal 6xHis (pET28a); label: IRDye700 (printed IRDay700); blunt; self-complementary 20-mer, 2 copies
[2] = target: TOP2B full-length (Homo sapiens, UniProt Q02880 1-1626); assay: EMSA; 200 uM ICRF193; FP: 20 mM HEPES-NaOH pH 7.4, 2 mM DTT, 3 mM MgCl2, 0.05% NP-40, protease inhibitors, room temperature 20 min; EMSA buffer not in material; details: protein: recombinant; label: IRDye700 (printed IRDay700); blunt; self-complementary 20-mer, 2 copies
[3] = target: TOP2A full-length (Homo sapiens, UniProt P11388 1-1531); assay: as above; details: protein: recombinant; label: IRDye700 (printed IRDay700); blunt; self-complementary 20-mer, 2 copies

Measured: binding result

TOP2A full-length, sequence (P11388 whole entry): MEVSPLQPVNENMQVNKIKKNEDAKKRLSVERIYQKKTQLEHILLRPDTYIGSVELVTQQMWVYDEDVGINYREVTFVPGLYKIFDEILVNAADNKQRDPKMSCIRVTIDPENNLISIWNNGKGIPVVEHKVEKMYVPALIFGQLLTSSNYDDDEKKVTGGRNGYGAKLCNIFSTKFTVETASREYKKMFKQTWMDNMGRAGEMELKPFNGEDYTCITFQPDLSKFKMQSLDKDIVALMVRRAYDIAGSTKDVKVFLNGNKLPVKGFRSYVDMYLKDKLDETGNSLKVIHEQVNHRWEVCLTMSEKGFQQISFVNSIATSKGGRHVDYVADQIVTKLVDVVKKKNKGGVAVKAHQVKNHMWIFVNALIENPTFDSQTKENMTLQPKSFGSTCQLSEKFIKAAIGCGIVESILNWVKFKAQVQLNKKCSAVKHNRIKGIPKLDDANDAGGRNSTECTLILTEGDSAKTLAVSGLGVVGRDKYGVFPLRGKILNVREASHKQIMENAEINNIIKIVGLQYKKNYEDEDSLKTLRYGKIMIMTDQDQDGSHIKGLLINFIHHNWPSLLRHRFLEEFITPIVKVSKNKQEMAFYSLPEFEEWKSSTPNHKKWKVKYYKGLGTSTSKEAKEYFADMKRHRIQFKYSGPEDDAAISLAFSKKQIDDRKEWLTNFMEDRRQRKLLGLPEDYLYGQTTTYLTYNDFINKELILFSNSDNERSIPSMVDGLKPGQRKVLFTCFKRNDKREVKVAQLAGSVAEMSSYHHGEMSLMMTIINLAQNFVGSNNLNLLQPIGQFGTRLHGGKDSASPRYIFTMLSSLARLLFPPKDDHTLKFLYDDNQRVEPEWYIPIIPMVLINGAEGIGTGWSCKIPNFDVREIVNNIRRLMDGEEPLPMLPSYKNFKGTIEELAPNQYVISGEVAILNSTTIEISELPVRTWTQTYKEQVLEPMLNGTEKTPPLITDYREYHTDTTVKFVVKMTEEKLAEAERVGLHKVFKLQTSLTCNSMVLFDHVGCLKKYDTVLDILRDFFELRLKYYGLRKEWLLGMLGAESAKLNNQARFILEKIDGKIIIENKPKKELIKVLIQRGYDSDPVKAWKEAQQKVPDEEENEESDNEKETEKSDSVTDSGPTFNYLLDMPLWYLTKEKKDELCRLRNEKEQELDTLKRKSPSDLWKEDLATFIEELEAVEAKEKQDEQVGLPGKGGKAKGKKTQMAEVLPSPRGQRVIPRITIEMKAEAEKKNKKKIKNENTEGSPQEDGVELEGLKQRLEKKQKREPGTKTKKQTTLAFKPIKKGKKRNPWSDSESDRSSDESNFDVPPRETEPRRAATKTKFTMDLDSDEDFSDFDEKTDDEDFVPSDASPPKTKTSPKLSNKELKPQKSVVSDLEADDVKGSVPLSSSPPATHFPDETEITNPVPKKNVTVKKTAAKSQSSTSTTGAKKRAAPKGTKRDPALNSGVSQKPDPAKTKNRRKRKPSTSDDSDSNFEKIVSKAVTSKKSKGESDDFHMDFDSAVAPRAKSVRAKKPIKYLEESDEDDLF
TOP2A(431-1193), sequence (P11388 431-1193): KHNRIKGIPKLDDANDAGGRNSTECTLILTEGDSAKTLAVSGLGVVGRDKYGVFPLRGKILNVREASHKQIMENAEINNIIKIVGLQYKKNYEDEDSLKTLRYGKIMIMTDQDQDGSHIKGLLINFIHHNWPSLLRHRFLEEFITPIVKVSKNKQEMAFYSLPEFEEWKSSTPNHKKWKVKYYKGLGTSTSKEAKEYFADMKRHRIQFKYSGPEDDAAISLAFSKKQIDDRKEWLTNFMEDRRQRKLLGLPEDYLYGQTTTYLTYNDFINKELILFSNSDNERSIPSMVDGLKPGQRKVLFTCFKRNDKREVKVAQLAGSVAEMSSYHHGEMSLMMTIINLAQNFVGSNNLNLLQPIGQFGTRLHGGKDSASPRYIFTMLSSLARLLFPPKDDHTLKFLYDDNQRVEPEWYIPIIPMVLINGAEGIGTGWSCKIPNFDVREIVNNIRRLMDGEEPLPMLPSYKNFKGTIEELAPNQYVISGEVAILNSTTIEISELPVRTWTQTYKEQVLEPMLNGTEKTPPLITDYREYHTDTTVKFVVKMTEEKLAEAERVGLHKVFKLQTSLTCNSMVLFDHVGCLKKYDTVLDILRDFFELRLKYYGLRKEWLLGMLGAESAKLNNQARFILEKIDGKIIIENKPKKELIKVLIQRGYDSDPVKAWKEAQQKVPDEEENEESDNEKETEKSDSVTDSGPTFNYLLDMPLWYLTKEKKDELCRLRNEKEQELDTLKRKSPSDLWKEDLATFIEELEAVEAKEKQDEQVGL
TOP2B full-length, sequence (Q02880 whole entry): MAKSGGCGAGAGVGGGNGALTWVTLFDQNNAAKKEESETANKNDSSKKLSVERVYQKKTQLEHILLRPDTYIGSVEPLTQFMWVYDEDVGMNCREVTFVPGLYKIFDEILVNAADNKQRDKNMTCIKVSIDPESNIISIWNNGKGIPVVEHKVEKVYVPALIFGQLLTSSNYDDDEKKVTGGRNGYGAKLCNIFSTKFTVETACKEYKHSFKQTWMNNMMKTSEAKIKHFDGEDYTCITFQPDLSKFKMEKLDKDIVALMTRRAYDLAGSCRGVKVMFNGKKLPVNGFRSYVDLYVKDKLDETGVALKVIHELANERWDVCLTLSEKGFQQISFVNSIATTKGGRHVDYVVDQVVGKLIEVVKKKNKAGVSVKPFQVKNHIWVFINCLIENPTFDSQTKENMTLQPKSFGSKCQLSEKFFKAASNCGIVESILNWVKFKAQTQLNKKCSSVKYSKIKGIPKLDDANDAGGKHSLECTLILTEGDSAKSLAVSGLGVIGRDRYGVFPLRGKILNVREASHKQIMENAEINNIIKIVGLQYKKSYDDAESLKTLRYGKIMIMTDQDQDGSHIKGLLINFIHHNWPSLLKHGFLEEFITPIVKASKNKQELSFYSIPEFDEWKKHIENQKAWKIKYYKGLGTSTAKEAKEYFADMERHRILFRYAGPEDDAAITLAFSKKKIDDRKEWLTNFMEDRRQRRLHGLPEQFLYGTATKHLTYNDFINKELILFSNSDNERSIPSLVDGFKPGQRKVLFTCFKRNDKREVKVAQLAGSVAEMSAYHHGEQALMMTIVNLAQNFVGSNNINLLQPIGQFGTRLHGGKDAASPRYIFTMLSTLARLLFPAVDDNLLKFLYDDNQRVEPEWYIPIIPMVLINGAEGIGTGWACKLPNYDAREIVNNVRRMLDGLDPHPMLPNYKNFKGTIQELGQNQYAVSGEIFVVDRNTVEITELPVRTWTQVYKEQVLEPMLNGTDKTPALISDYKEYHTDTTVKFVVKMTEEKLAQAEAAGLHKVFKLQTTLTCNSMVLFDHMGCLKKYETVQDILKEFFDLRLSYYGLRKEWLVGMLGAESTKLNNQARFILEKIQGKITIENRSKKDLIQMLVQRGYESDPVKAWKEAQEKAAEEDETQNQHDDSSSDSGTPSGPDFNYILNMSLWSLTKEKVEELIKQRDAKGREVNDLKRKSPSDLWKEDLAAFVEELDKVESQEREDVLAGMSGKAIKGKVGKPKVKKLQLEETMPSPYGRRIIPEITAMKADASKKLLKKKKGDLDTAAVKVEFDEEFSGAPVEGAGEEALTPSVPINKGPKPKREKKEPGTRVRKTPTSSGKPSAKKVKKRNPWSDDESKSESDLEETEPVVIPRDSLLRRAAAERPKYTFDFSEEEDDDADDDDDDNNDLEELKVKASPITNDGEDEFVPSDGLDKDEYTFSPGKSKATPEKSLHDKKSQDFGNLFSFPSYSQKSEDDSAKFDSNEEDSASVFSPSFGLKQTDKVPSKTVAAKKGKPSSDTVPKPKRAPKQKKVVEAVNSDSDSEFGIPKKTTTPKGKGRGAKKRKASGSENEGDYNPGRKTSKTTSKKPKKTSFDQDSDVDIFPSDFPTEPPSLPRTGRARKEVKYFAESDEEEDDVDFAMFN

B1: 5ZRF DNA oligo (IRDye700) (dsDNA)
DNA 1: AGCCGAGCTGCAGCTCGGCT
DNA 2: AGCCGAGCTGCAGCTCGGCT
binds: all assays above
